In patent publication US20200399344A1 (SHATTUCK LABS, published 2020):

What was measured:
[1] = biological target: T1, recombinant human CD28-His (rhCD28-His) (human, UniProt P10747 19-152); test: ELISA: coat rhCD28-His (Acro), detection Anti-hFc-HRP
T1 construct: also called Human CD28-His protein; recombinant CD28 protein; not shown: His tag
Experimental: To understand whether the CD80 and CD86 parts of the hCD80-Fc-NKG2A and hCD86-Fc-NKG2A chimeric protein can bind CD28, ELISA-based assays were performed. Briefly, recombinant CD28 protein was coated on plates and increasing amounts of the hCD80-Fc-NKG2A, hCD86-Fc-NKG2A, and mCD48-Fc-NKG2A chimeric proteins, and recombinant human CD86-Fc (rhCD86-Fc) protein was added to the plates for capture by the plate-bound recombinant CD28 protein. The mCD48-Fc-NKG2A chimeric protein, and recombinant human CDrhCD86-Fc protein was used as negative and positive controls, respectively. The chimeric proteins bound to the recombinant CD28 protein was detected using an anti-human Fc HRP.

[2] = biological target: T2, recombinant HLA-E-His protein (human, UniProt P13747 22-305, limits assumed); test: ELISA: the chimeric protein is the titrated coat (1:3), detection HLA-E-His (Novus NBP2-47435PEP), HRP Anti-6x-His-HRP
T2 construct: also called recombinant HLA-E (HLA-E-His); not shown: His tag
Experimental: In a complementary experiment, increasing amounts of the hCD48-Fc-NKG2A, hCD58-Fc-NKG2A, and hCD80-Fc-NKG2A chimeric proteins or a negative control protein was coated on plates. Recombinant HLA-E-His protein was added to the plates for capture by the plate-bound chimeric proteins or the negative control protein. The captured HLA-E-His protein was detected using an anti-6×-His-HRP antibody.

[3] = biological target: T3, recombinant human CD28-Fc (rhCD28-Fc) protein (human, UniProt P10747 19-152); test: dual ELISA; coat rhCD28-Fc, hCD80-fc-NKG2a titrated, detection HLA-E-His, Anti 6x-His-HRP; the signal needs both bindings
T3 construct: not shown: Fc
Experimental: (§1) To understand whether the hCD80-Fc-NKG2A chimeric protein can binds simultaneously to both hCD28 and HLA-E, the following ELISA experiment was carried out. Briefly, and recombinant hCD28 (rhCD28-Fc) protein was coated on plates. Increasing amounts of the hCD80-Fc-NKG2A chimeric protein was added to the plates for capture by the recombinant human CD28-Fc (rhCD28-Fc) protein. Further, recombinant HLA-E (HLA-E-His) protein was added to the plate for capture by hCD80-Fc-NKG2A chimeric protein. The binding of the HLA-E-His protein was detected using an anti-His 6× HRP antibody.

[4] = biological target: T4, anti-mFc IgG antibody (plate-bound); test: ELISA: coat Anti-mFc (IgG) Jax #115-006-008, detection Anti-mFc (H+L) HRP
T4 construct: also called anti-Fc antibody
Experimental: To understand whether the Fc linkers from the native chimeric proteins can be accessed by anti-mouse Fc antibodies, ELISA-based assays were performed. For these assays, an anti-mFc IgG antibody was coated on plates and increasing amounts of the mPD-1-Fc-NKG2A and mSLAMF6-Fc-NKG2a chimeric proteins were added to the plates for capture by the plate-bound anti-mFc IgG antibody. The binding of the mPD-1-Fc-NKG2A and mSLAMF6-Fc-NKG2a chimeric proteins bound to the anti-mFc IgG antibody were detected using an anti-mFc HRP. An IgG antibody mouse Fc was used to generate a standard curve. mFc IgG was used as a positive control.

[5] = biological target: T5, recombinant PD-L1 protein (mPD-L1-His) (mouse, UniProt Q9EP73 19-238); test: ELISA; mPD1-Fc-NKG2a coated in rising amounts, detection mPD-L1-His, Anti-His-6x-HRP
T5 construct: not shown: His tag
Experimental: Programmed death-ligand 1 (PD-L1) is a PD-1 ligand. To understand whether the PD-1 parts of the PD-1-Fc-NKG2A chimeric protein can bind PD-L1, ELISA-based assays were performed. […] The chimeric protein bound to the recombinant PD-L1 protein was detected using an anti-His-6× HRP.

[6] = biological target: T6, recombinant mouse PD-L1-Fc (rmPD-L1-Fc) (mouse, UniProt Q9EP73 19-238); test: dual ELISA; coat mPDL1-Fc, mPD1-Fc-NKG2a titrated, detection HLA-E-His, Anti-His-6x-HRP; the signal needs both bindings
T6 construct: also called rPD-L1-Fc; not shown: Fc
Experimental: Increasing amounts of the mPD-1-Fc-NKG2A chimeric protein was added and detected using HLA-E-His. A chimeric protein comprising ECD of a type II transmembrane protein other than NKG2A was used as a negative control.
as §1, with “PD-1-Fc-NKG2A” for “hCD80-Fc-NKG2A”, “PD-L1” for “hCD28”, “PD-L1 (rPD-L1-Fc)” for “hCD28 (rhCD28-Fc)”, “rPD-L1-Fc” for “recombinant human CD28-Fc (rhCD28-Fc)”

[7] = biological target: T7, anti-human IgG antibody (plate-bound); test: Fc ELISA: coat Anti-hFc (Jax), detect Anti-hFc-HRP (Jax)
T7 construct: also called anti-human Fc antibody

[8] = biological target: T8, hPD-L1 expressed on CHO-K1/hPD-L1 cells (human, UniProt Q9NZQ7 19-290); test: flow cytometry cell binding assay, CHO-K1-Luc cells, detection Anti-hARC-PE
T8 construct: whole, on cells

[9] = biological target: T9, PD-L1, plate-bound (Example 8) (Homo sapiens (Human), UniProt Q9NZQ7 19-238); test: Dual ELISA (capturing with PDL1): coat hPDL1-Fc (R&D), detect hHLA-E (Novus), HRP Anti-6X His
T9 construct: not shown: The Fc carrier of the vendor's hPD-L1-Fc (R&D) and any linker

[10] = biological target: T2, recombinant HLA-E-His protein; test: Dual binding ELISA (capturing with HLA-E): coat hHLA-E-His (Novus), detect Anti-hPD1 (Sino), HRP Anti-mFc-HRP
Excerpt: (§2) As shown in FIG. 9C and FIG. 9D, binding of the hNKG2A domain of the hPD-1-Fc-hNKG2A chimeric protein was characterized by capturing to, respectively, a plate-bound HLA-E. In FIG. 9C, the hPD-1-Fc-hNKG2A chimeric protein was detected using an anti-human PD-1 antibody in conjunction with an HRP conjugated anti-mouse Fc antibody. In FIG. 9D, the hPD-1-Fc-hNKG2A chimeric protein was directly detected via an HRP conjugated anti-mouse Fc antibody.

[11] = biological target: T10, recombinant hPD-L1 (hPD-L1-Fc) protein (human, UniProt Q9NZQ7 19-239); test: dual ELISA; coat hPDL1-Fc, hPD1-fc-NKG2a titrated, detection HLA-E-His, Anti-His-6x-HRP; the signal needs both bindings
T10 construct: not shown: Fc
Experimental: as §1, with “hPD-1-Fc-NKG2A” for “hCD80-Fc-NKG2A”, “hPD-L1” for “hCD28”, “hPD-L1 (hPD-L1-Fc)” for “hCD28 (rhCD28-Fc)”, “hPD-L1-Fc” for “recombinant human CD28-Fc (rhCD28-Fc)”

[12] = biological target: T2, recombinant HLA-E-His protein; test: ELISA (single-sided): coat hHLA-E-His (Novus), detect Anti-hFc (JAX); curve rises to about 0.4 at the highest concentration, no plateau
Excerpt: as §2, with “9D, the hPD-1-Fc-hNKG2A chimeric protein was directly detected via an HRP conjugated anti-mouse Fc antibody.” left out

T2 sequence (P13747 22-305 limits assumed): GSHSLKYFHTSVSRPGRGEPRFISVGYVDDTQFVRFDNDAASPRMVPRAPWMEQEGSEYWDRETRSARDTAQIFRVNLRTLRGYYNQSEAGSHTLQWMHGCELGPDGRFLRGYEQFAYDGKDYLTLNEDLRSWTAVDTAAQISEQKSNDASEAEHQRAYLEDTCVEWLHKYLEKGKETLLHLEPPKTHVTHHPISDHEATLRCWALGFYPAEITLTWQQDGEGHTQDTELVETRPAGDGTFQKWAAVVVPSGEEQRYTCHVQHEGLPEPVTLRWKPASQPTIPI
T10 sequence (Q9NZQ7 19-239 limits assumed): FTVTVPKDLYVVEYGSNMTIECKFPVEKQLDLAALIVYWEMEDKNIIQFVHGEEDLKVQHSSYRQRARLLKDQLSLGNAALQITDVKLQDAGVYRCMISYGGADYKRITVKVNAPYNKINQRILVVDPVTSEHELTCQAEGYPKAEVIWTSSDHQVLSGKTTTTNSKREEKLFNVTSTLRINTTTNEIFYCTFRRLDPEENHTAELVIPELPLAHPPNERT
T6 sequence (Q9EP73 19-238 limits assumed): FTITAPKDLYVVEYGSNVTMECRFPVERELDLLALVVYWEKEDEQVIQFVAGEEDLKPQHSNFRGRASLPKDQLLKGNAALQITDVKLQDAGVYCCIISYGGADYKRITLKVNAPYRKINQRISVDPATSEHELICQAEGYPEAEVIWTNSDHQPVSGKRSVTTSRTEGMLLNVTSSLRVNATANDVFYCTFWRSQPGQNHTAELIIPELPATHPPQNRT
T5 sequence (Q9EP73 19-238 limits assumed): as above
T9 sequence (Q9NZQ7 19-238 limits assumed): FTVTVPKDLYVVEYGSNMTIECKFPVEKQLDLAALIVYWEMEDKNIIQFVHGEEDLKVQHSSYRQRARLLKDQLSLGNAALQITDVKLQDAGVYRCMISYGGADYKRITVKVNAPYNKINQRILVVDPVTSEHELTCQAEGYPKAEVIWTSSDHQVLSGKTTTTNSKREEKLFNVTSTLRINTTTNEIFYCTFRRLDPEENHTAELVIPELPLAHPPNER
T8 sequence (Q9NZQ7 19-290): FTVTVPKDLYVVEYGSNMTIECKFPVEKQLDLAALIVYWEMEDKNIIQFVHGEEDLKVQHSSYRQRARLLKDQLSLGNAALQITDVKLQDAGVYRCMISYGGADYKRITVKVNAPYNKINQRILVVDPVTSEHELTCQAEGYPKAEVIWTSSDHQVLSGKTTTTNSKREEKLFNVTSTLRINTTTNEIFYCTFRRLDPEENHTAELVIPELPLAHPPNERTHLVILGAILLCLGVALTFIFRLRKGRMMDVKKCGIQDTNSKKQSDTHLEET
T3 sequence (P10747 19-152 limits assumed): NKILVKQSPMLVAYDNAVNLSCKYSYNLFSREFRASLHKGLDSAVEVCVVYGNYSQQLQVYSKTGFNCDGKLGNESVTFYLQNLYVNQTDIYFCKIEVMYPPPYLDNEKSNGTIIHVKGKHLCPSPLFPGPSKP
T1 sequence (P10747 19-152 limits assumed): as above

B1: human CD80-Fc-NKG2A chimeric protein (Fc fusion)
chain: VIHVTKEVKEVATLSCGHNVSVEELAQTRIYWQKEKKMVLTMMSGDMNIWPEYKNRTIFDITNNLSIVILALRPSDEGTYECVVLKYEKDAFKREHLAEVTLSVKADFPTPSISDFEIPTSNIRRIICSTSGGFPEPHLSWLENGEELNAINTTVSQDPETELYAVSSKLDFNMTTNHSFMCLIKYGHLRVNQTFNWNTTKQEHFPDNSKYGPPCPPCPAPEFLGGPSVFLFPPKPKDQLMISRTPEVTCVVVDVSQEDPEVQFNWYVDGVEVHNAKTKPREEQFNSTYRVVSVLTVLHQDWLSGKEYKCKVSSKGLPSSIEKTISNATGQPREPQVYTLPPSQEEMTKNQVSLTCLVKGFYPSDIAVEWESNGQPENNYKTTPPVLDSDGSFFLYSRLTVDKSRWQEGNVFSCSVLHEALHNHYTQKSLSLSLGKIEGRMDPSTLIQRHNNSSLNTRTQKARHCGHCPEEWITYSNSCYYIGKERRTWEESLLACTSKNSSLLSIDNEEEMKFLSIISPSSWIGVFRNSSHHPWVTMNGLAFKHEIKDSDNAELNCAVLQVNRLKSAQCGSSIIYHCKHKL
notes: also called hCD80-Fc-NKG2A
[1]
  binding result: binds
[2]
  EC50 (read off the curve): ~0.9 µg/mL
[3]
  binding result: binds

B2: mouse PD-1-Fc-NKG2A chimeric protein (Fc fusion)
chain: SGWLLEVPNGPWRSLTFYPAWLTVSEGANATFTCSLSNWSEDLMLNWNRLSPSNQTEKQAAFCNGLSQPVQDARFQIIQLPNRHDFHMNILDTRRNDSGIYLCGAISLHPKAKIEESPGAELVVTERILETSTRYPSPSPKPEGRFQGMVPRDCGCKPCICTVPEVSSVFIFPPKPKDVLTITLTPKVTCVVVDISKDDPEVQFSWFVDDVEVHTAQTQPREEQFNSTFRSVSELPIMHQDWLNGKEFKCRVNSAAFPAPIEKTISKTKGRPKAPQVYTIPPPKEQMAKDKVSLTCMITDFFPEDITVEWQWNGQPAENYKNTQPIMDTDGSYFVYSKLNVQKSNWEAGNTFTCSVLHEGLHNHHTEKSLSHSPGIIEGRMDTPYTEAKAQINSSMTRTHRDINYTLSSAQPCPHCPKEWISYSHNCYFIGMERKSWNDSLVSCISKNCSLLYIDSEEEQDFLQSLSLISWTGILRKGRGQPWVWKEDSIFKPKIAEILHDECNCAMMSASGLTADNCTTLHPYLCKCKFPI
notes: also called mPD-1-Fc-NKG2A; mPD1-Fc-NKG2A
[4]
  EC50 (read off the curve): ~0.08 µg/mL
[5]
  EC50 (read off the curve): ~20 µg/mL
[6]
  EC50 (read off the curve): ~40 µg/mL

B3: human PD-1-Fc-hNKG2A chimeric protein (Fc fusion)
chain: not shown
notes: the Fc of the tested construct is therefore uncertain; also called hPD-1-Fc-hNKG2A; hPD-1-Fc-NKG2A
[7]
  EC50: 0.00964 µM
[8]
  EC50 (read off the curve): ~1 µg/mL
[9]
  EC50: 0.0256 µM
[10]
  EC50: ~0.175 µM
[11]
  EC50 (read off the curve): ~20 µg/mL
[12]
  EC50: ~24200 µM
